In series [1] the target is dansylated CaM7 (Arabidopsis thaliana, UniProt P59220 1-149, dansyl (labelled with dansyl chloride; sites not stated)). The experiment in a line: other fluorescence titration.
Series [2] deals with the molecule itself. The experiment in a line: SEC.

No end group written: not given here. SUMO = small ubiquitin-like modifier

B1: SUMO-AtFBA5 (Arabidopsis fructose bisphosphate aldolase 5 with N-terminal His-SUMO tag) (enzyme, Arabidopsis thaliana, UniProt O65581 1-358, looked up)
chain: MSAFVGKYADELIKTAKYIATPGKGILAADESTGTIGKRFASINVENIESNRQALRELLFTSPGTFPCLSGVILFEETLYQKTTDGKPFVELLMENGVIPGIKVDKGVVDLAGTNGETTTQGLDSLGARCQEYYKAGARFAKWRAVLKIGATEPSELSIQENAKGLARYAIICQENGLVPIVEPEVLTDGSHDIKKCAAVTETVLAAVYKALNDHHVLLEGTLLKPNMVTPGSDSPKVAPEVIAEYTVTALRRTVPPAVPGIVFLSGGQSEEEATLNLNAMNKLDVLKPWTLTFSFGRALQQSTLKAWAGKTENVAKAQATFLTRCKGNSDATLGKYTGGASGDSAASESLYEEGYKY
As for B1, binding in series [1] was characterised by a dissociation constant (Kd) of 190 nM. In series [2], the “stoichiometry N” value is 4.

B2: SUMO-AtFBA5 CaMBD (residues 194-213) (domain or fragment)
chain: {SUMO}-IKKCAAVTETVLAAVYKALN
modifications: not fully specified
In series [1], B2 registered a Kd of 290 ± 130 nM.

B3: SUMO-AtFBA4 (Arabidopsis fructose bisphosphate aldolase 4 with N-terminal His-SUMO tag) (enzyme, Arabidopsis thaliana, UniProt F4KGQ0 1-393, looked up)
chain: MSCFKSKFAGKSYFRRTFHSSIIQFHPQLSILIWHRRYSIIRTYELIANAAYIGTPGKGILAADESTGTIGKRFVSINVENVESNRRALRELLFTTPGALQYISGIILFEETLYQKTASGKLFVDVMKEAGVLPGIKVDKGTVELAGTNGETTTTGLDGLGDRCKKYYEAGARFAKWRAVLKIGNNEPSELAIHENAYGLARYAVICQENGLVPIVEPEILVDGSHDIEKCAYVTERVLAACYKALSDHHVILEGTLLKPNMVTPGSDSGSKVKPEVIAKHTVRALQRTVPAAVPAVVFLSGGQSEEEATVNLNAINQLKGKKPWSLTFSYGRALQQSTLKAWGGKEENVDKAQKAFLARAKANSEATLGGYKGDAQLGEGASESLHVKDYKY
Take B3: the “stoichiometry N” value in series [2] was 4.

What is called Kd is a measure of binding affinity in units of concentration. High values mean weaker binding, low ones tighter binding. One may read the stoichiometry N as a count of units in the complex or per binding partner.
